Biological target: HLA-A*02:01 (recombinant MHC class I molecule) (human)
Test: REVEAL MHC-peptide binding assay, recombinant MHC, score normalised to positive control = 100
Details: remark: other sources report otherwise

In Vitro Score (% of positive control peptide)	Binder
1.2	VAFIIFWVR [Synthetic peptide … (K28R)]

Biological target: HLA-A*03:01 (recombinant MHC class I molecule) (human)
Test: as above
Details: remark: other sources report otherwise

In Vitro Score (% of positive control peptide)	Binder
0.7	VAFIIFWVR [Synthetic peptide … (K28R)]

Biological target: HLA-B*08:01 (recombinant MHC class I molecule) (human)
Test: REVEAL MHC-peptide binding assay, stabilisation of ternary complex with recombinant MHC
Details: remark: other sources report otherwise

In Vitro Score (% of positive control peptide)	Binder
0.1	VAFIIFWVR [… synthetic peptide K28R (SEQ ID NO: 100)]

Biological target: HLA-A*11:01 (recombinant MHC class I molecule) (human)
Test: as above
Details: remark: other sources report otherwise

In Vitro Score (% of positive control peptide)	Binder
34.6	VAFIIFWVR [… synthetic peptide K28R (SEQ ID NO: 100)]

Biological target: HLA-A*03:01 (human)
Test: REVEAL MHC-peptide binding assay, recombinant HLA
Details: remark: other sources report otherwise

In Vitro Score (% of positive control peptide)	Binder
25.3	IIFWVSRGR
0	FIIFWVHRG
36.7	IFWVQRGRK
30.1	IIFWVHRGR
1.9	WVKRGSKKL
53.7	IFWVARGRK
24.3	IIFWVKRGR
37.8	IFWVHRGRK
0.3	AFIIFWVHR
0.3	AFIIFWVSR
10.4	IFWVKRGSK
26.9	IFWVKRGLK
0.5	AFIIFWVAR
16.2	IIFWVKRGS
15.9	IIFWVKRGL
39.2	IFWVSRGRK
18	IIFWVQRGR

Biological target: HLA-A*02:01 (human)
Test: REVEAL MHC-peptide binding assay, recombinant HLA
Details: remark: other sources report otherwise

In Vitro Score (% of positive control peptide)	Binder
2.6	IIFWVSRGR
37.3	FIIFWVHRG
6.1	IFWVQRGRK
4.7	IIFWVHRGR
3	WVKRGSKKL
1	IFWVARGRK
1.7	IIFWVKRGR
7.1	IFWVHRGRK
0.3	AFIIFWVHR
4.5	AFIIFWVSR
2.4	IFWVKRGSK
2.4	IFWVKRGLK
2.2	AFIIFWVAR
13.6	IIFWVKRGS
82.2	IIFWVKRGL
1.3	IFWVSRGRK
5.8	IIFWVQRGR
